± gives the uncertainty stated by the source.
Experiment: amyloid nucleation score (Sup35N fusion, yeast selection) (log enrichment); library NNK2; higher = more nucleation; inactive = no reads after selection
In short: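 After 24 hours of induction with 100 μM copper sulfate, psi-negative yeast expressing peptides of 20 random codons fused to Sup35N were grown for 7 days at 30°C on medium lacking adenine and uracil. Input and output plasmid inserts were sequenced with Illumina, and sequences with under 100 input reads were discarded. Scores for nucleation are the DiMSum log enrichment of output over input reads, centred on the mode score of non-aggregating sequences.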

First: PAIISFQYLFGRRSELEKM
Second: PALTIEIMSYGASQHGFSLV
The amyloid nucleation score of the first is higher: 5.572 ± 0.047 for the first, 0.367 ± 0.28 for the second.

Going from PATDPWCS to PAVFRHHPGKHVRHGSSTTT, the amyloid nucleation score rises from -0.14 ± 0.25 to 0.73 ± 0.28.

Going from PCCQEACDGCEGNRDLPGEA to PCLMEGFTS, the amyloid nucleation score falls from 1.65 ± 0.32 to -0.849 ± 0.64.

PDFFCRSVVNQKMYLKTLHY and PDVPIFCPYAAAMKVAVCYR are within error of each other in amyloid nucleation score: -1.03 ± 1.1 for the first, -0.526 ± 0.76 for the second.

Compared with PELSNDQGYFVDSVKSGKVE, PFACYGFCRM is lower in amyloid nucleation score: -0.036 ± 0.48 for the first, -1.29 ± 0.76 for the second.

First: PFLSLAVFVTQAVVEHCCRC
Second: PFSCITRLQ
The amyloid nucleation score of the first is higher: 7.48 ± 0.085 for the first, 2.48 ± 0.1 for the second.

Going from PFSIVIVANFYIITYEACFL to PFSLVTSITFFWSIMCIYAM, the amyloid nucleation score falls from 2.85 ± 0.14 to 0.57 ± 0.81.

First: PGDMLSGAFHMCISNCVTSC
Second: PGHWLTNINISFSACKCLMM
The amyloid nucleation score of the first is lower: 0.319 ± 0.38 for the first, 8.227 ± 0.045 for the second.

PGLPEERHNCKTYCHRTSRP and PGVMHICLCRTHTSRCKCTL are within error of each other in amyloid nucleation score: 0.016 ± 0.34 for the first, 0.402 ± 0.57 for the second.

Compared with PGVRISVPVLLAWNCYC, PHLTMFKARYIDTFAPRS is lower in amyloid nucleation score: 8.558 ± 0.071 for the first, -0.672 ± 0.5 for the second.

First: PIFSSKLSGRGR
Second: PIGHLFQET
The amyloid nucleation score of the first is lower: -0.059 ± 0.55 for the first, 0.92 ± 0.24 for the second.

Compared with PILLMSTVTRRLVRCNVAFK, PIRVSSSVVSWYYFGNSRIW is lower in amyloid nucleation score: 0.391 ± 0.51 for the first, -1.09 ± 0.62 for the second.

First: PITLTRASALLCKYYAFWTF
Second: PIWWLL
The amyloid nucleation score of the first is higher: 1.14 ± 0.37 for the first, -0.822 ± 0.79 for the second.

Compared with PKRLKSSYLD, PKYTDCCFFNLILIGWSVFP is higher in amyloid nucleation score: -0.208 ± 0.37 for the first, 5.272 ± 0.052 for the second.

PLCLSDNYMTIQSSSILNAH and PLLFIMANFCLVVLHVSFYN are within error of each other in amyloid nucleation score: -0.205 ± 0.41 for the first, -0.639 ± 1 for the second.

Compared with PLPGFRIMFLWRQNALPVQP, PMCYSVSSNLWVTTLQWGYL is higher in amyloid nucleation score: 0.196 ± 0.64 for the first, 2.56 ± 0.14 for the second.

PMVFNHG and PNACPFWCLGRV are within error of each other in amyloid nucleation score: -0.398 ± 1 for the first, -0.439 ± 0.63 for the second.

PNIIGKLGNLNSLVLC and PNSPRMNESLSFIFPGDVSG are within error of each other in amyloid nucleation score: 0.382 ± 0.8 for the first, -0.474 ± 1 for the second.

PNSYAETDWISLCSDSMSWH and PNTSKGGDGYSTWGTSQASS are within error of each other in amyloid nucleation score: 0.721 ± 0.74 for the first, 0.03 ± 0.46 for the second.

PPHCTGHLV and PPIRVYNLSSTYPMDMSSQR are within error of each other in amyloid nucleation score: 0.183 ± 1 for the first, -0.8 ± 0.27 for the second.

Going from PQSWCFFPNFDKGLVLVRRQ to PQTLCINISFDYRYMNQVLD, the amyloid nucleation score rises from 0.801 ± 0.82 to 7.449 ± 0.074.

PRCRVAR and PRFIQGYILRNLCARMLKYS are within error of each other in amyloid nucleation score: 0.305 ± 1 for the first, -0.368 ± 0.39 for the second.

PRQHYSNRGFCFSFILGVGM and PRSVFCCLDGRHTPRKMPIY are within error of each other in amyloid nucleation score: -0.327 ± 0.34 for the first, -0.47 ± 0.74 for the second.

PRVNILWYNRMLYAWFRPVV and PSDSLVYVYDL are within error of each other in amyloid nucleation score: -1.21 ± 0.55 for the first, -0.41 ± 0.38 for the second.

First: PSIRWNVIIAMSYLQS
Second: PSQAGKIMVLKNTRWNHRDC
The amyloid nucleation score of the first is higher: 1.89 ± 0.16 for the first, 1.01 ± 0.52 for the second.

First: PSRPCGLRELAYADSAKQLW
Second: PSVSRLIESNFCSSIRFFTH
The amyloid nucleation score of the first is higher: 1.15 ± 0.34 for the first, -1.04 ± 0.64 for the second.

PTAVNSTMYSMYRTGNL and PTDHSTEVSLRFCCRGVSEL are within error of each other in amyloid nucleation score: -0.294 ± 0.34 for the first, -0.403 ± 0.46 for the second.

First: PTGCLMICNSFVIDSVRRRP
Second: PTQVSDLDNLTDCPRGVLPC
The amyloid nucleation score of the first is higher: 7.812 ± 0.032 for the first, -0.735 ± 0.48 for the second.

Going from PVAQTLAVTFNY to PVGFDHNF, the amyloid nucleation score falls from 1.62 ± 0.23 to -0.451 ± 0.56.

Going from PVKRQGSSAANVPVVW to PVLFYSLYIVNVNTLYMSSG, the amyloid nucleation score rises from 0.444 ± 0.44 to 7.857 ± 0.051.

Going from PVLIVLYDIGSCKERKE to PVRSRWPFSSSLAAVTTYRV, the amyloid nucleation score rises from 0.134 ± 0.55 to 1.26 ± 0.41.

First: PVWKVERRNSHLLKDIGNSI
Second: PVYRACILIDM
The amyloid nucleation score of the first is lower: 0.325 ± 0.57 for the first, 3.18 ± 0.054 for the second.

Going from PWPYIWSRCSQTDTVSCEHS to PYGFRVFTLWMLKRDSS, the amyloid nucleation score rises from -0.212 ± 0.33 to 0.92 ± 0.57.

PYNMVVYLGLLSRC and PYQMGSYKLACVQKRPWV are within error of each other in amyloid nucleation score: 0.919 ± 0.17 for the first, 0.929 ± 0.58 for the second.

Going from PYRLHMCCWEPLRSMLFMSF to PYSVTEHICGIWLVWCIVGS, the amyloid nucleation score falls from 1.03 ± 0.31 to -0.418 ± 1.1.

PYYYRLDFWHHNKKYNFGYY and QAGALFDKRQGLRYGWVVSM are within error of each other in amyloid nucleation score: -1.16 ± 1.1 for the first, -0.641 ± 0.41 for the second.

QCFIWSHRVIVGFHGLGLSA and QCGSSMFRMPVLNWTA are within error of each other in amyloid nucleation score: -0.02 ± 0.79 for the first, 0.734 ± 0.81 for the second.

QCKVQCKEWVYNVFAKLQDS and QCSHI are within error of each other in amyloid nucleation score: -0.927 ± 1.1 for the first, -0.193 ± 0.28 for the second.

First: QCVGRASCANSVALYLCSVA
Second: QCVVTVCDRL
The amyloid nucleation score of the first is lower: 0.06 ± 0.35 for the first, 1.73 ± 0.13 for the second.

Compared with QDMQLVIYWSYKLYQVFLRA, QDRVFYIAYVNNVS is higher in amyloid nucleation score: -0.357 ± 1.1 for the first, 5.606 ± 0.04 for the second.

In the case of PEGPERFVFATWPRMHMPSY, the amyloid nucleation score is reported as “inactive”.
For PEPFS, the amyloid nucleation score was “inactive”.
With PFGKGKEHIKL the amyloid nucleation score was “inactive”.
With PKVLGFFK the amyloid nucleation score was “inactive”.
In the case of PRCNGHY, the amyloid nucleation score is reported as “inactive”.
For PRCYLVLKFYSQCLFSVHTF, the amyloid nucleation score was “inactive”.
For PSMQVVKRVINFG, the amyloid nucleation score was “inactive”.
